# B1: jack bean asparaginyl endopeptidase 1 (CeAEP1) (enzyme, Canavalia ensiformis (jack bean), UniProt P49046 36-475, looked up)
# chain: EVGTRWAVLVAGSNGYGNYRHQADVCHAYQLLIKGGVKEENIVVFMYDDIAYNAMNPRPGVIINHPQGPDVYAGVPKDYTGEDVTPENLYAVILGDKSKVKGGSGKVINSNPEDRIFIFYSDHGGPGVLGMPNAPFVYAMDFIDVLKKKHASGGYKEMVIYIEACESGSIFEGIMPKDLNIYVTTASNAQENSFGTYCPGMNPPPPEEYVTCLGDLYSVSWMEDSETHNLKRETVQQQYQSVRKRTSNSNSYRFGSHVMQYGDTNITAEKLYLYHGFDPATVNFPPHNGNLEAKMEVVNQRDAELLFMWQMYQRSNHQPEKKTHILEQITETVKHRNHLDGSVELIGVLLYGPGKSSSVLHSVRAPGLPLVDDWTCLKSMVRVFETHCGSLTQYGMKHMRAFGNVCNSGVSKASMEEACKAACGGYDAGLLYPSNTGYSA
# modifications: succinimide intermediate (SNN) modelled at Asp157
# Experiments:
# [1] = molecular target: recombinant jack bean conA precursor (pro-conA) (Canavalia ensiformis (jack bean)); assay: crystal structure
# [2] = molecular target: the molecule itself; assay: crystal structure
Molecule,stoichiometry N [1],stoichiometry N [2]
recombinant jack bean conA precursor (pro-conA) (natural protein),2,
B1,,2

# — article doi:10.1101/2020.10.28.360099 (bioRxiv, 2020)
